Assay [1] has as its target T1, human serum albumin (human, UniProt P02768 25-609).
T1 construct: Negative control antigen
The assay can be described thus: ELISA.

For assay [2], the target named is T2, streptavidin (UniProt P22629 37-163, limits assumed).
T2 construct: Negative control antigen
The assay can be described thus: ELISA.

Assay [3] has as its target T3, BSA (UniProt P02769 25-607).
T3 construct: Negative control antigen
As to the kind of experiment: ELISA.

Assay [4] concerns the target T4, Human CD100 (human, UniProt Q92854 22-734, limits assumed).
T4 construct: also called SEMA4D; Hu CD100
T4 sequence (looked up): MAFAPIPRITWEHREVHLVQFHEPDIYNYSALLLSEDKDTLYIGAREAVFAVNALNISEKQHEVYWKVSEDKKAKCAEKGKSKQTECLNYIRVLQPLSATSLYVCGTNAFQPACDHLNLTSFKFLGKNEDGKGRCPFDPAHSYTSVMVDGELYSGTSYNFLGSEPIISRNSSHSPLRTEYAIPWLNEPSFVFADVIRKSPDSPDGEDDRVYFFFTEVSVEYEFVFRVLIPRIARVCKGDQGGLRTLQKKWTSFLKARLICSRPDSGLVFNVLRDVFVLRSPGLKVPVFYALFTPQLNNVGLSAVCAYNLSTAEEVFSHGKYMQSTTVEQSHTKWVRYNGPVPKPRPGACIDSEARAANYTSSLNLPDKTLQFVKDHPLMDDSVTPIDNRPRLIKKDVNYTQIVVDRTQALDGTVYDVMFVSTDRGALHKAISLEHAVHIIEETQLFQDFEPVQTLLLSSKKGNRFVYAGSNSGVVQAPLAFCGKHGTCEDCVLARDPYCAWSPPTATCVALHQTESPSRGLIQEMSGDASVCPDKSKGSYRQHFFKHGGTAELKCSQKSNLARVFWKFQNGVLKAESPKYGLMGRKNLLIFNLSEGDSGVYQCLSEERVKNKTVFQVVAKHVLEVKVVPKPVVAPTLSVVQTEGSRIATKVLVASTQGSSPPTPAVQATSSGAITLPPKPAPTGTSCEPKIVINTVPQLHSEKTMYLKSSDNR
The assay can be described thus: ELISA method of Friguet et al.; column head 'Affinity (nM) IC50 ELISA'; antigen not named. As for the experimental part: Antibody affinity was measured according to the ELISA method described in Friguet et al. (1985) J Immunol Methods 77(2):305-19.

Assay [5] has as its target T5, huErb2-Fc (human, UniProt P04626 23-652).
T5 construct: Negative control antigen; also called huErb2-Fc antigen
The assay can be described thus: ELISA on huErb2-Fc antigen (Neg Ctrl).

In assay [6] the target is T6, human CD100-Fc (human, UniProt Q92854 22-734, limits assumed).
T6 construct: also called CD100-Fc antigen
T6 sequence (looked up): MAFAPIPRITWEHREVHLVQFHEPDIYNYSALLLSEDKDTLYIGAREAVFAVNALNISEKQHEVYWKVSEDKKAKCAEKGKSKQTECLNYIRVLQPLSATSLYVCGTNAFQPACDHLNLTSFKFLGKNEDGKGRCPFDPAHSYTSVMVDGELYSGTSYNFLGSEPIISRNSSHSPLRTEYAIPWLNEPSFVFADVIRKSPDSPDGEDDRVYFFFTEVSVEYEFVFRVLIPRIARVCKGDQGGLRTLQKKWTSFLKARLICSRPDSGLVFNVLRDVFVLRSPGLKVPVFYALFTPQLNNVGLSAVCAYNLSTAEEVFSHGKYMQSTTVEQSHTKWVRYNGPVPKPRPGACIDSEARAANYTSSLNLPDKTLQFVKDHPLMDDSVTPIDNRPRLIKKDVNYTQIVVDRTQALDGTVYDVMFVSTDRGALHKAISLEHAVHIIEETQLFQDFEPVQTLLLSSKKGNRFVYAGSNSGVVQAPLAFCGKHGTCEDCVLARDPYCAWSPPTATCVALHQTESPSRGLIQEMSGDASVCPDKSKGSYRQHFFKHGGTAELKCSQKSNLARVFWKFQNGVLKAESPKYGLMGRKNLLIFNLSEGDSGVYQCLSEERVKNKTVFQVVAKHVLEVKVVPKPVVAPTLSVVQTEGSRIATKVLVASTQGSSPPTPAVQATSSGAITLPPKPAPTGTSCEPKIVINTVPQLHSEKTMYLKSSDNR
As to the kind of experiment: ELISA on CD100-Fc antigen.

The target in assay [7] is T5, huErb2-Fc. The assay can be described thus: ELISA.
The target of assay [8] is T4, Human CD100. The assay can be described thus: affinity testing, reference value of MAb 1808 on the same day; unit not printed (nM as in Table 3); MAb 1808 reference on the day MAb 2208 was measured.
The target of assay [9] is T4, Human CD100. As to the kind of experiment: affinity testing, reference value of MAb 1808 on the same day; unit not printed (nM as in Table 3); MAb 1808 reference on the day MAb 2117 was measured.
The target in assay [10] is T4, Human CD100. As to the kind of experiment: affinity testing, reference value of MAb 1808 on the same day; unit not printed (nM as in Table 3); MAb 1808 reference on the day MAb 2163 was measured.
In assay [11] the target is T4, Human CD100. The assay can be described thus: affinity testing, reference value of MAb 1808 on the same day; unit not printed (nM as in Table 3); MAb 1808 reference on the day MAb 2139 was measured.
The target of assay [12] is T4, Human CD100. The assay can be described thus: affinity testing, reference value of MAb 1808 on the same day; unit not printed (nM as in Table 3); MAb 1808 reference on the day MAb 2144 was measured.
For assay [13], the target named is T4, Human CD100. The assay can be described thus: affinity testing, reference value of MAb 1808 on the same day; unit not printed (nM as in Table 3); MAb 1808 reference on the day MAb 2191 was measured.
The target in assay [14] is T4, Human CD100. As to the kind of experiment: affinity testing, reference value of MAb 1808 on the same day; unit not printed (nM as in Table 3); MAb 1808 reference on the day MAb 2202 was measured.
For assay [15], the target named is T4, Human CD100. The assay can be described thus: affinity testing, reference value of MAb 1808 on the same day; unit not printed (nM as in Table 3); MAb 1808 reference on the day MAb 2216 was measured.
Assay [16] has as its target T4, Human CD100. As to the kind of experiment: affinity testing, reference value of MAb 1808 on the same day; unit not printed (nM as in Table 3); MAb 1808 reference on the day MAb 2220 was measured.
Assay [17] has as its target T4, Human CD100. As to the kind of experiment: affinity testing, reference value of MAb 1808 on the same day; unit not printed (nM as in Table 3); MAb 1808 reference on the day MAb 2125 was measured.
Assay [18] has as its target T4, Human CD100. As to the kind of experiment: affinity testing, method and unit not printed in Example 10 (nM as in Table 3); mutant value, before the parentheses.
In assay [19] the target is T6, human CD100-Fc. The assay can be described thus: competition ELISA on CD100-Fc: BD16 titrated against 5 ng/ml MAb 301, bound MAb 301 detected with anti-human Kappa HRP. As for the experimental part:
(§1) Competition ELISA assays were then performed. The ELISA plate was coated with CD100-Fc antigen, and BD16 or BB18 were allowed to bind individually to CD100. […] The cells were washed and antibody activity detected. Bound chimeric or human MAb was detected using anti-human Kappa HRP.

Assay [20] addresses T6, human CD100-Fc. As to the kind of experiment: competition ELISA on CD100-Fc: BD16 titrated against 5 ng/ml MAb 657, bound MAb 657 detected with anti-human Kappa HRP. As for the experimental part: as §1

T2 sequence (P22629 37-163 limits assumed): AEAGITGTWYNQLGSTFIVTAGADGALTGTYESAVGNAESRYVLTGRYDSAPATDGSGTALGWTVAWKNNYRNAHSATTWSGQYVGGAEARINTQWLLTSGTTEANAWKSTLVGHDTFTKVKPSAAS
T3 sequence (P02769 25-607 limits assumed): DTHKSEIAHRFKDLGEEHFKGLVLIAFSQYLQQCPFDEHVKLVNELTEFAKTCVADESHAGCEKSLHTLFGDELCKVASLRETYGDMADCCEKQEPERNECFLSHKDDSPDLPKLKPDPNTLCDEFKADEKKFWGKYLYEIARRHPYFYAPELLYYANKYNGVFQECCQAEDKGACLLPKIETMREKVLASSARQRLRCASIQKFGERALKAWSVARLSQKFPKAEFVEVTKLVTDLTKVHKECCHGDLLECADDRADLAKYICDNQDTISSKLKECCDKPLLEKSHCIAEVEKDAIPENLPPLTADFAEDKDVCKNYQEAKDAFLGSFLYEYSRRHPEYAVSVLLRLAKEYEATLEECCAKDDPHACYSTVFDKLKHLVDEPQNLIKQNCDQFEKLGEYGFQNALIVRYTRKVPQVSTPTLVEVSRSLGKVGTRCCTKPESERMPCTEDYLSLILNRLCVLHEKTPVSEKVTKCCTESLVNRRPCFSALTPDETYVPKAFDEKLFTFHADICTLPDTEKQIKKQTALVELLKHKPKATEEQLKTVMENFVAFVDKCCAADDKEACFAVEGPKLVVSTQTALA
T1 sequence (P02768 25-609 limits assumed): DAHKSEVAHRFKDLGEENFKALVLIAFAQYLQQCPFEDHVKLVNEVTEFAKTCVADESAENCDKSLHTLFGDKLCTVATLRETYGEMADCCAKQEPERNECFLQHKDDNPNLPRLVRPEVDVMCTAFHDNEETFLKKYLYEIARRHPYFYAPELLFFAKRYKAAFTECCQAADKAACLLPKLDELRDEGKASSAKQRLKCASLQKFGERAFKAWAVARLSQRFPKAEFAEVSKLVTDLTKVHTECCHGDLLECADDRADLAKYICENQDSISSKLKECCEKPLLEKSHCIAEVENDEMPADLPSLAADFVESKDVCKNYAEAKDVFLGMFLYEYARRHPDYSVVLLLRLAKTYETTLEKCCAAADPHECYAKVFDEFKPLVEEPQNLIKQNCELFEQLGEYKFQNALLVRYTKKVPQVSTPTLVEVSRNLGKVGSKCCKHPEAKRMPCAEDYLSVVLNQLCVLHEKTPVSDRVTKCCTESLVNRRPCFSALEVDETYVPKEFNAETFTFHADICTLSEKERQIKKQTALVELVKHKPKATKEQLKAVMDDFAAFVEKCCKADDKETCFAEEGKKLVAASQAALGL

B1: MAb 657 (antibody, human IgG1, V domains shown)
VH: QVQLVQSGAEVKKPGSSVKVSCKASGYTFTDYYMDWVRQAPGQGLEWIGRVNPYHGGATYNQKFKGKATITVDKSTSTAYMELSSLRSEDTAVYYCAREENSYDGYYGMDYWGQGTLVTVSS
VL: DIVMTQSPLSLPVSPGEPATINCKSSQSLFNSGNQKNYLAWYLQKPGQPPKLLIYGASTRESGVPDRFSGSGSGTDFTLTISSLQAEDVAVYYCQNDHTYPYTFGQGTKLEIK
notes: Humanized BD16, human IgG1; also called H1235/L284
Turning to B1, the binding result in [1] is “no binding”; in assay [2], “no binding”; in [3] it was “no binding”; in assay [5], “no binding (tested: 500 ng/ml)”. Also, the Kd in [4] worked out at 0.12 nM. Moreover, the “EC50 (read off the curve)” value in assay [6] is approximately 0.03 µg/mL.

B2: MAb 1808 (antibody, human IgG4, V domains shown)
VH: QVQLVQSGAEVKKPGSSVKVSCKASGYTFTDYYMDWVRQAPGQGLEWMGRVNPYHGGATYNQKFKGRVTITADKSTSTAYMELSSLRSEDTAVYYCAREENSYDGYYGMDYWGQGTLVTVSS
VL: DIVMTQSPLSLPVSPGEPATINCKSSQSLFNSGNQKNYLAWYLQKPGQPPKLLIYGASTRESGVPDRFSGSGSGTDFTLTISSLQAEDVAVYYCQNDHTYPYTFGQGTKLEIK
notes: Humanized BD16, fully human frameworks, human IgG4; also called H1651/L284
In the case of B2, the binding result in assay [7], in assay [1], in assay [2] and in assay [3] was “no binding” throughout. Also, the Kd came to 0.12 nM in assay [8]; 0.57 nM in assay [9]; 0.12 nM in assay [10]; 0.71 nM in assay [11]; 0.5 nM in assay [12]; 0.13 nM in assay [4]. Further, the Kd in assay [13] is 0.13 nM; in assay [14] it was 0.12 nM; in assay [15] it was 0.12 nM; in assay [16], 0.12 nM; in [17], 0.57 nM.

B3: MAb 2191 (antibody, V domains shown)
VH: QVQLVQSGAEVKKPGSSVKVSCTASGYTFTDYYMDWVRQAPGQGLEWMGRVNPYHGGATYNQKFKGRVTITADKSTSTAYMELSSLRSEDTAVYYCAREENSYTGYYGMDYWGQGTLVTVSS
VL: DIVMTQSPLSLPVSPGEPATINCKSSQSLFNSGNQKNYLAWYLQKPGQPPKLLIYGASTRESGVPDRFSGSGSGTDFTLTISSLQAEDVAVYYCQNDHTYPYTFGQGTKLEIK
notes: Double mutant of H1651 with L284; also called H1651 K23T D104T with L284
For B3, in [18], the Kd worked out at 0.09 nM.

B4: BD16 (antibody, V domains shown)
VH: EVQLQQSGPELVKPGASVKMSCKASGYTFTDYYMDWVKQSHGESFEWIGRVNPYHGGATYNQKFKGKATLTVDKSSRTAYMELNSLTYEDSAVYYCAREENSYDGYYGMDYWGQGTTVTVSS
VL: DIVLTQSPSSLSVSAGEKVTMDCKSSQSLFNSGNQKNYLAWYHQKPGQPPKLLIYGASTRESGVPDRFTGSGSGTDFTLTISSVQAEDLAVYYCQNDHTYPYTFGGGTKLEIK
notes: Murine hybridoma anti-human CD100 antibody; also called mouse BD16; BD16 mouse MAb
For B4, the “IC50 (read off the curve)” value in [19] was approximately 0.02 µg/mL; in assay [20] it was approximately 0.03 µg/mL. Also, the Kd in assay [4] was 0.13 nM.

The values are drawn from patent US20080219971A1 (VACCINEX, published 2008).
